The data set has as its system Escherichia coli TOP10. In words: shrunken log2 fold change of peptide-encoding DNA abundance (4.5 h post-induction vs induction); higher = less antimicrobial activity (less host growth inhibition). As to conditions: time post-induction: 4.5 h; library: site-saturation at positions 5, 18, 19, 20.

This is an account of results in the supplement of paper PMC9112550, “Optimization of the antimicrobial peptide Bac7 by deep mutational scanning” (BMC Biology, 2022).
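Further: peptides expressed intracellularly from a pBAD plasmid library in pooled LB shake-flask culture, induced with 0.3% L-arabinose, DNA abundance read by NGS, three biological replicates, DESeq2 with apeglm shrinkage.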

For RRIRRRPPRLPRPRPRPKLKPRP, the “shrunken log2 fold change” value came out at 0.211.

Regarding RRIRMRPPRLPRPRPRPSAFPRP, the “shrunken log2 fold change” value amounted to 1.26.

RRIRGRPPRLPRPRPRPNCGPRP: the “shrunken log2 fold change” value was found to be 0.0147.

For the sequence RRIRQRPPRLPRPRPRPQCDPRP, the “shrunken log2 fold change” value is -0.146.

Consider RRIRNRPPRLPRPRPRPAFIPRP, for which the “shrunken log2 fold change” value is -0.579.

As to RRIRYRPPRLPRPRPRPLEAPRP, the “shrunken log2 fold change” value amounted to 0.0153.

In the case of RRIRGRPPRLPRPRPRPDGGPRP, the “shrunken log2 fold change” value came out at 0.468.

As to RRIRMRPPRLPRPRPRPPENPRP, the “shrunken log2 fold change” value was -0.0255.

With RRIRPRPPRLPRPRPRPSRWPRP, the “shrunken log2 fold change” value was found to be 0.611.

On to RRIRNRPPRLPRPRPRPHWPPRP, for which the “shrunken log2 fold change” value came out at 0.0957.

With RRIRHRPPRLPRPRPRPPTQPRP, the “shrunken log2 fold change” value was found to be 0.137.

RRIRVRPPRLPRPRPRPMWNPRP: the “shrunken log2 fold change” value was -0.0504.

Turning to RRIRGRPPRLPRPRPRPFSHPRP, the “shrunken log2 fold change” value was -0.153.

For the sequence RRIRRRPPRLPRPRPRPQETPRP, the “shrunken log2 fold change” value was found to be 0.00135.

As for RRIRQRPPRLPRPRPRPRRWPRP, the “shrunken log2 fold change” value worked out at 0.326.

As to RRIRGRPPRLPRPRPRPECGPRP, the “shrunken log2 fold change” value amounted to 1.71.

For RRIRMRPPRLPRPRPRPFALPRP, the “shrunken log2 fold change” value is 0.0192.

For the sequence RRIRCRPPRLPRPRPRPAQEPRP, the “shrunken log2 fold change” value was 0.101.

Regarding RRIRIRPPRLPRPRPRPSKAPRP, the “shrunken log2 fold change” value was -0.176.

Regarding RRIRMRPPRLPRPRPRPRENPRP, the “shrunken log2 fold change” value was found to be 0.265.

Regarding RRIRIRPPRLPRPRPRPGNCPRP, the “shrunken log2 fold change” value is -0.549.

For the sequence RRIRVRPPRLPRPRPRPTNQPRP, the “shrunken log2 fold change” value stood at 0.0229.

For the sequence RRIRQRPPRLPRPRPRPTNHPRP, the “shrunken log2 fold change” value was -0.552.

RRIRERPPRLPRPRPRPPSDPRP: the “shrunken log2 fold change” value turned out to be 0.0848.

Turning to RRIRKRPPRLPRPRPRPHHAPRP, the “shrunken log2 fold change” value is -0.066.

As for RRIRHRPPRLPRPRPRPDTSPRP, the “shrunken log2 fold change” value was -0.0188.

On to RRIRGRPPRLPRPRPRPTSAPRP, for which the “shrunken log2 fold change” value stood at 0.855.

For the sequence RRIRTRPPRLPRPRPRPGFKPRP, the “shrunken log2 fold change” value is -0.0634.

In the case of RRIRDRPPRLPRPRPRPAPTPRP, the “shrunken log2 fold change” value was found to be 0.684.

Turning to RRIRFRPPRLPRPRPRPWEEPRP, the “shrunken log2 fold change” value is -0.159.

For RRIRHRPPRLPRPRPRPNVNPRP, the “shrunken log2 fold change” value is -0.555.

As for RRIRDRPPRLPRPRPRPNIDPRP, the “shrunken log2 fold change” value was determined as 0.068.

With RRIRLRPPRLPRPRPRPPPMPRP, the “shrunken log2 fold change” value came out at 0.966.

Turning to RRIRRRPPRLPRPRPRPIQKPRP, the “shrunken log2 fold change” value is -0.218.

Consider RRIRNRPPRLPRPRPRPPIMPRP, for which the “shrunken log2 fold change” value is -0.549.

As to RRIRSRPPRLPRPRPRPMVMPRP, the “shrunken log2 fold change” value was found to be 0.0113.

In the case of RRIRNRPPRLPRPRPRPNVAPRP, the “shrunken log2 fold change” value stood at 3.26.

In the case of RRIRWRPPRLPRPRPRPGWCPRP, the “shrunken log2 fold change” value turned out to be 0.362.

Turning to RRIRGRPPRLPRPRPRPSVCPRP, the “shrunken log2 fold change” value was 0.159.

RRIRERPPRLPRPRPRPSNPPRP: the “shrunken log2 fold change” value was -0.681.

RRIRWRPPRLPRPRPRPMRFPRP: the “shrunken log2 fold change” value came to 0.00175.

Consider RRIRQRPPRLPRPRPRPANAPRP, for which the “shrunken log2 fold change” value was -0.0699.

For the sequence RRIRCRPPRLPRPRPRPVIWPRP, the “shrunken log2 fold change” value worked out at 0.0816.

For RRIRSRPPRLPRPRPRPKQDPRP, the “shrunken log2 fold change” value is 0.0172.

With RRIRARPPRLPRPRPRPDVHPRP, the “shrunken log2 fold change” value was 0.196.

RRIRQRPPRLPRPRPRPRSGPRP: the “shrunken log2 fold change” value is 0.162.

With RRIRFRPPRLPRPRPRPEWDPRP, the “shrunken log2 fold change” value is 0.168.

Regarding RRIRCRPPRLPRPRPRPQDFPRP, the “shrunken log2 fold change” value is 0.0295.

Take RRIRRRPPRLPRPRPRPCQTPRP: the “shrunken log2 fold change” value is -0.041.

Regarding RRIRSRPPRLPRPRPRPMRNPRP, the “shrunken log2 fold change” value worked out at 0.628.

For the sequence RRIRCRPPRLPRPRPRPIILPRP, the “shrunken log2 fold change” value is -0.354.

RRIRNRPPRLPRPRPRPKTIPRP: the “shrunken log2 fold change” value is -0.14.

As for RRIRNRPPRLPRPRPRPDVMPRP, the “shrunken log2 fold change” value is -0.275.

As to RRIRPRPPRLPRPRPRPIACPRP, the “shrunken log2 fold change” value is 0.0852.

Regarding RRIRPRPPRLPRPRPRPQDSPRP, the “shrunken log2 fold change” value is -0.196.

For the sequence RRIRSRPPRLPRPRPRPVNAPRP, the “shrunken log2 fold change” value stood at 0.319.

Consider RRIRVRPPRLPRPRPRPDNEPRP, for which the “shrunken log2 fold change” value is -0.185.

RRIRGRPPRLPRPRPRPSYWPRP: the “shrunken log2 fold change” value worked out at 0.119.

As for RRIRKRPPRLPRPRPRPPPKPRP, the “shrunken log2 fold change” value is 1.2.

RRIRMRPPRLPRPRPRPGGVPRP: the “shrunken log2 fold change” value is 0.952.

Take RRIRNRPPRLPRPRPRPHWLPRP: the “shrunken log2 fold change” value is -0.101.

For the sequence RRIRVRPPRLPRPRPRPSVAPRP, the “shrunken log2 fold change” value came out at 0.595.

As for RRIRKRPPRLPRPRPRPIVGPRP, the “shrunken log2 fold change” value turned out to be 0.117.

RRIRHRPPRLPRPRPRPNDWPRP: the “shrunken log2 fold change” value is 0.339.

As for RRIRNRPPRLPRPRPRPNEHPRP, the “shrunken log2 fold change” value is -0.071.

RRIRFRPPRLPRPRPRPLDMPRP: the “shrunken log2 fold change” value is -0.372.

Turning to RRIRRRPPRLPRPRPRPNWDPRP, the “shrunken log2 fold change” value was -0.0988.

RRIRYRPPRLPRPRPRPMIAPRP: the “shrunken log2 fold change” value was -0.188.

As to RRIRLRPPRLPRPRPRPGCEPRP, the “shrunken log2 fold change” value came to 0.409.

For RRIRKRPPRLPRPRPRPECCPRP, the “shrunken log2 fold change” value was found to be 0.327.

Take RRIRCRPPRLPRPRPRPSNLPRP: the “shrunken log2 fold change” value was -0.425.

Regarding RRIRSRPPRLPRPRPRPLAKPRP, the “shrunken log2 fold change” value is 0.358.

Take RRIRRRPPRLPRPRPRPYEWPRP: the “shrunken log2 fold change” value was found to be 0.00618.

RRIRCRPPRLPRPRPRPTERPRP: the “shrunken log2 fold change” value is 0.211.

Regarding RRIRNRPPRLPRPRPRPPRAPRP, the “shrunken log2 fold change” value was found to be 0.658.

For RRIRDRPPRLPRPRPRPIEDPRP, the “shrunken log2 fold change” value is -0.0411.

For RRIRFRPPRLPRPRPRPFMQPRP, the “shrunken log2 fold change” value was -0.675.

Regarding RRIRYRPPRLPRPRPRPFAQPRP, the “shrunken log2 fold change” value was -0.159.

Turning to RRIRVRPPRLPRPRPRPVQWPRP, the “shrunken log2 fold change” value was -0.0327.

As to RRIRVRPPRLPRPRPRPECKPRP, the “shrunken log2 fold change” value was 0.0339.

In the case of RRIRRRPPRLPRPRPRPHTNPRP, the “shrunken log2 fold change” value was -0.547.

Take RRIRWRPPRLPRPRPRPVIKPRP: the “shrunken log2 fold change” value is -0.226.

On to RRIRKRPPRLPRPRPRPAHHPRP, for which the “shrunken log2 fold change” value was -0.00814.

In the case of RRIRLRPPRLPRPRPRPLVHPRP, the “shrunken log2 fold change” value is -0.0413.

RRIRPRPPRLPRPRPRPPPYPRP: the “shrunken log2 fold change” value was 0.0995.

As for RRIRCRPPRLPRPRPRPDGAPRP, the “shrunken log2 fold change” value worked out at 0.129.

Take RRIRRRPPRLPRPRPRPSKHPRP: the “shrunken log2 fold change” value is -0.196.

Turning to RRIRDRPPRLPRPRPRPWYAPRP, the “shrunken log2 fold change” value is 0.00564.

For RRIRGRPPRLPRPRPRPQHFPRP, the “shrunken log2 fold change” value is 0.139.

For the sequence RRIRRRPPRLPRPRPRPNYDPRP, the “shrunken log2 fold change” value is -0.187.

For RRIRSRPPRLPRPRPRPDEPPRP, the “shrunken log2 fold change” value amounted to 0.0784.
